US20070141662

Target: CISNN116 (NT1-C3-hIL21) (UniProt Q9HBE4)
Sequence (Q9HBE4 other isoform, or with tags, fused parts or gaps): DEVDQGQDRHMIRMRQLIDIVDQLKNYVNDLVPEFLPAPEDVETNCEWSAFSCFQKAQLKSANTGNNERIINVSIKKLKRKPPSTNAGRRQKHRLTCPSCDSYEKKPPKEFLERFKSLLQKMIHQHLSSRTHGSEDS

Substance: Caspase 3
- completion of the proteolysis reaction (Maldi analysis), 1 hour at 37° C.: Maldi analysis showed 87% completion of the reaction
